Data on 131 substances can be found in the supplement of paper PMC12042874.

± gives the uncertainty stated by the source.

A short description of this data set: amyloid nucleation score (Sup35N fusion, yeast selection) (log enrichment); library NNK3; higher = more nucleation; inactive = no reads after selection. The method, boiled down: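 For the nucleation score, DiMSum gave the log enrichment of output over input reads, centred on the mode score of non-aggregating sequences. Psi-negative yeast expressing Sup35N fused to peptides of 20 random codons were induced with 100 μM copper sulfate for 24 hours and grown 7 days at 30°C on medium lacking adenine and uracil. Input and output plasmid inserts were Illumina-sequenced, and sequences with under 100 input reads were excluded.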
For the substance GILNFAL, the amyloid nucleation score entry is “inactive”.
With GILNT the entry was “inactive”.
As to GILSKIDVSWWRMAVSVKCW, the amyloid nucleation score entry was “inactive”.
With GIRHVGLVGTMSRKDWSYFR the entry was “inactive”; with GIRYQRFVRRVFHDYWR, “inactive”.
GISALSVWFCISDRRSDQDH came in with an amyloid nucleation score of 2.63 ± 0.057.
The result for GITMFGLHMYQNDCLEVAWL reads 0.904 ± 0.25; that for GITVMSLTG, “inactive”.
With GIVDQFRTVSNNVLNQYEIW the entry was “inactive”.
As to GIWCDITHGNRMAWNYVLIR, the amyloid nucleation score entry is “inactive”.
The result for GIWDWVLAIMLRFVTKPS reads “inactive”; that for GKGPNCMGASFLNGAHWSGI, “inactive”; that for GKISTRFRFFSVDETRPTIN, 1.18 ± 0.15.
With GKKLDMYHIRHSRW the entry was “inactive”; with GKVYLYLCLGMMFGL, “inactive”; with GKYKFSLF, “inactive”.
GLCPYSIQFFGGRSDHNW yielded an amyloid nucleation score of 1.24 ± 0.15.
With GLCRWVTPTAWSAIVVQFCV, the amyloid nucleation score result is “inactive”.
Take GLCSMLASFRTQYSS: the amyloid nucleation score result was “inactive”.
With GLDHLPMFWYRPLIWPDVPQ, the amyloid nucleation score entry is “inactive”.
The result for GLEFRARRKCRTKGELHDK reads “inactive”.
With GLFESERIYMWAYHFR the entry was “inactive”; with GLFRFFVIIITEEVRRAVSK, “inactive”.
The result for GLFRRVRGIRT reads “inactive”.
GLGPSCSQYKP: the amyloid nucleation score result is “inactive”.
Take GLGTAD: the amyloid nucleation score entry was “inactive”.
GLIVCVVASSYLMSGFGVKG showed an amyloid nucleation score of 0.03 ± 0.22.
The result for GLMESSCRMGLLNPIQTFTQ reads 0.036 ± 0.98; that for GLPLVACLMSEQYCL, “inactive”.
The result for GLQVYMIQRIETGM reads “inactive”; that for GLTTSYQPYILYIL, “inactive”.
As to GLVLTPDEEMIRQWEMLTYG, the amyloid nucleation score result was “inactive”.
The result for GLVNVVWMCFLGWPWLKVRS reads “inactive”; that for GLVSGGVFMMADMSRILKGK, “inactive”.
On to GLVYWVQHGCWLTAIQSVLV, for which the amyloid nucleation score result was “inactive”.
GMFDCMIELYISGPDLGQGS: the amyloid nucleation score entry is “inactive”.
With GMFMCMKMVFFLKWYINLYF, the amyloid nucleation score result was “inactive”.
Regarding GMFRDHAYADCRGLTY, the amyloid nucleation score entry is “inactive”.
For GMIASDVFAHFKSGQTMGVW, the amyloid nucleation score entry was “inactive”.
With GNDVGSMFESRN the entry was “inactive”.
Turning to GNFINHT, the amyloid nucleation score result is “inactive”.
With GNGSMVVYKSARVNLLSGIT the entry was “inactive”; with GNIVLMMSYILM, 2.3 ± 0.086.
With GNLLMYHGIWGTNALEDRYL the entry was “inactive”; with GNMKNHTMQFAEVVDGDFTM, “inactive”; with GNMQVRYRIESANNRMGQRE, 0.261 ± 0.47.
The result for GNNVTHSRDRCSMWYWVHLL reads “inactive”; that for GNSASLEEVVLMEEGGVLCA, “inactive”.
For the substance GNWWCNCTQYNLGMMDSALG, the amyloid nucleation score stood at 1.98 ± 0.071.
With GNYSREVRKNVYPETGVRQM the entry was “inactive”; with GPLFRLRMFL, “inactive”; with GPLSHRN, “inactive”.
The result for GPMWQLAVTCACSDNRMWTK reads 0.053 ± 0.51.
With GPQYWCVTRNNYYGSFYEVS the figure was 0.407 ± 0.18; with GPSPDPNRLP, -0.754 ± 1.3; with GPSSMINNVDLSCFSF, “inactive”.
In the case of GPWGSNNMQICTYFQNLFIA, the amyloid nucleation score was found to be 1.73 ± 0.092.
With GQHSRSLDTSACCPT the entry was “inactive”.
With GQNPSLRLVKESGF the entry was “inactive”; with GQNSRPGLANTLLYPEVLIR, “inactive”; with GQSNMFCNWTFANVKRCNL, 2.33 ± 0.071.
Take GQVLNCVRNRIRIAVKRRGG: the amyloid nucleation score entry is “inactive”.
With GRCMEGS the entry was “inactive”; with GRCRITKSLGGSSQTNGYWV, “inactive”.
With GRGNAGPCTSNRWDDFWEKK the entry was “inactive”.
Turning to GRGTYGSNPYRGLDIYRYDG, the amyloid nucleation score entry is “inactive”.
Regarding GRHNKCMVDLVEDFQLASIW, the amyloid nucleation score entry was “inactive”.
The result for GRLSTAICFCGTMPSRWGFS reads “inactive”; that for GRPICNYCRYVVVSVSMRRQ, “inactive”; that for GRRMSNLEKPVLLDIKANFL, “inactive”.
With GRWMMWFIEFYNGRQESWGN, the amyloid nucleation score entry is “inactive”.
The result for GSCWLDVCQDCKSFSILS reads “inactive”.
Substance GSFAGCMGCLCYILVCSVYR returned an amyloid nucleation score of 0.717 ± 0.12.
The result for GSGHAVIEVIRRFCSEDDNK reads “inactive”.
Consider GSLCLSGKKIVFLHMNEAMG, for which the amyloid nucleation score result is “inactive”.
Consider GSLYFSCINPM, for which the amyloid nucleation score result was “inactive”.
With GSNQMPDPPHWPRDYNAEKR the entry was “inactive”; with GSQYNSFSK, “inactive”.
With GSRVLKAWGSLSLILTSYDG the entry was “inactive”; with GSSCRRINTEYSLAAYQSYE, “inactive”; with GSSIEPDWL, “inactive”.
The result for GSSRQNY reads “inactive”.
Regarding GSSRRKKLTV, the amyloid nucleation score entry is “inactive”.
The result for GSTTWYDLMIYLDME reads “inactive”; that for GSVTEGFVGLG, “inactive”; that for GSVVTQGCGNLTLEAA, “inactive”.
The result for GSVYETNDTELLRVTLR reads “inactive”; that for GSYSGM, “inactive”.
As to GTALLRFGIVGPNDLVRLCC, the amyloid nucleation score entry is “inactive”.
The result for GTEDWPNHGKKTLAINYLCP reads “inactive”.
For the substance GTISIGSIRAVLLAFPFYAL, the amyloid nucleation score was determined as 1.08 ± 0.13.
With GTMVSEIDWVRLTYTGYSE the entry was “inactive”.
Take GTNWCGIFLNFLLFVML: the amyloid nucleation score result is “inactive”.
With GTQLFFYMMCARFKDNL the figure was 0.195 ± 0.38; with GTRIFSRDVISSGFQGSICL, “inactive”; with GTTRATPSGPLCMNGKENVV, “inactive”.
The result for GTYCFINLTTRTGDRKGRHA reads 1.05 ± 0.12; that for GTYLKNF, “inactive”.
Turning to GVCGVLGFYFDPIITSL, the amyloid nucleation score entry was “inactive”.
With GVCRVVRSNHCMLWFRLDSS the entry was “inactive”; with GVEMHVFWDLA, “inactive”.
For the substance GVFGESS, the amyloid nucleation score result is “inactive”.
The result for GVGSRG reads “inactive”; that for GVHDRLTVSRFCLGVNGDGV, “inactive”; that for GVKTHGIAVMKVGLRRLCQG, “inactive”.
The result for GVLEAFLTDIIPMYGYVRVA reads “inactive”; that for GVLLFLYCYLRGPLYSTTSV, “inactive”; that for GVLLNTSELGSNGMDSKTLD, “inactive”.
GVLSCLSIMIAISGLPGSEK: the amyloid nucleation score stood at 0.801 ± 0.2.
With GVLTTALVGTCWPSTCFYGL the entry was “inactive”.
As to GVSISQPTILQWSTVRTSID, the amyloid nucleation score was 0.04 ± 0.85.
The result for GVSVCVGDVGNLAAFECFRA reads “inactive”.
As to GVYVWFAALNNPTVEGFLNS, the amyloid nucleation score entry is “inactive”.
GWELTFRSEF: the amyloid nucleation score result was “inactive”.
The result for GWLGSVGAKPADRVGKTGGI reads 0.504 ± 0.24.
With GWMSATVLFQLSE the entry was “inactive”.
With GWNSFPRPLYPRWDNSESAS the entry was “inactive”; with GWNTSSQRLHSAKPSHHRR, -0.892 ± 1.9; with GWWRMAWLV, “inactive”.
In the case of GWYLFC, the amyloid nucleation score entry is “inactive”.
Turning to GYDQKLES, the amyloid nucleation score result is “inactive”.
The result for GYESLYRQHLYDSSLCWESR reads “inactive”.
With GYFFGTTKKCETFTCMRWQV the entry was “inactive”.
Take GYMDAGIDWF: the amyloid nucleation score entry is “inactive”.
The result for GYMRSLYIRYYSRRRFRCI reads “inactive”; that for GYMWNRVGCLVEDDHNEGVN, “inactive”; that for GYQNVSTHRVKALAHRIWVG, “inactive”.
In the case of GYYFWQWLRIIL, the amyloid nucleation score result is “inactive”.
The result for HAGATL reads “inactive”; that for HARFNVRNN, “inactive”; that for HASMQFWKVDNSFNALMRLG, 0.398 ± 0.18.
